From IntAct's records for PubMed 19135888 come the findings set out here.

First the molecules themselves.
B1: Cell division control protein 13 (Saccharomyces cerevisiae), P32797 (parent)
chain: MDTLEEPECPPHKNRIFVSSSKDFEGYPSKAIVPVQFVALLTSIHLTETKCLLGFSNFERRGDQSQEDQYLIKLKFKDRGSERLARITISLLCQYFDIELPDLDSDSGASPTVILRDIHLERLCFSSCKALYVSKHGNYTLFLEDIKPLDLVSVISTISTKSTNSSKHSSSELISECDLNNSLVDIFNNLIEMNRDEKNRFKFVKLIHYDIELKKFVQDQQKVLSQKSKAAAINPFFVPNRLGIPYIESQNEFNSQLMTLNVDEPTTDISNMGEEMHDSADPIEDSDSSTTSSTGKYFSSKSYIQSQTPERKTSVPNNWHDDDSGSKRKRKLSFHSPNASSIRKAISYEQLSLASVGSVERLEGKIVGMNPPQFASINEFKYCTLKLYFTQLLPNVPDKVLVPGVNCIEIVIPTRERICELFGVLNCQSDKISDILLLEKPDRISVEVERILWDNDKTASPGMAVWSLKNISTDTQAQAQVQVPAQSSASIDPSRTRMSKMARKDPTIEFCQLGLDTFETKYITMFGMLVSCSFDKPAFISFVFSDFTKNDIVQNYLYDRYLIDYENKLELNEGFKAIMYKNQFETFDSKLRKIFNNGLRDLQNGRDENLSQYGIVCKMNIKVKMYNGKLNAIVRECEPVPHSQISSIASPSQCEHLRLFYQRAFKRIGESAISRYFEEYRRFFPIHRNGSHLAKLRFDEVKHEPKKSPTTPALAEHIPDLNADVSSFDVKFTDISSLLDSSARLPRPQQTHKSNTLYSCEGRIIAIEYHASDLCFHITNELPLLQTRGLAPERVLQLHIITSKNFAYFFNRSSAYLQRQPLEEKYTQLAQFLGHSFKFNITSSLTLFPDTTVALQIWCPIECTFRELQQQLAHPKVAAAPDSGSLDCAINATVNPLRLLAAQNGVTVKKEEDNDDDAGAVPTS

In the test the parent is B1. The following applies: with cdk1_yeast CDC28, P00546.
cdk1_yeast CDC28, P00546, sequence (P00546 whole entry, looked up): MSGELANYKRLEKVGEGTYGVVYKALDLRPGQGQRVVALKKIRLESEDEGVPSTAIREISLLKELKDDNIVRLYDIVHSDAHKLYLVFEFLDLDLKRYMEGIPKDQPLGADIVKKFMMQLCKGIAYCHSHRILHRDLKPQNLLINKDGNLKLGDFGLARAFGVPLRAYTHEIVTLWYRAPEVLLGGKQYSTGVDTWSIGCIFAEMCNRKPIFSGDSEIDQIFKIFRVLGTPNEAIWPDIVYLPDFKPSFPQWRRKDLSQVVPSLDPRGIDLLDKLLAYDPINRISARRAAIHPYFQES
Take T308A: the “effect of a mutation on the interaction” value is listed as “decreasing interaction”. On to T308A;S336A, for which the “effect of a mutation on the interaction” value is given as “disrupting interaction”.
